Among the data in patent US20120288494A1 (published 2012) are koff, Kd and IC50 values, retold here.

Like-named read-outs stand apart in the source and are kept apart here.

First the molecules themselves.
B1: IL-12 (ligand)
chain 1: IWELKKDVYVVELDWYPDAPGEMVVLTCDTPEEDGITWTLDQSSEVLGSGKTLTIQVKEFGDAGQYTCHKGGEVLSHSLLLLHKKEDGIWSTDILKDQKEPKNKTFLRCEAKNYSGRFTCWWLTTISTDLTFSVKSSRGSSDPQGVTCGAATLSAERVRGDNKEYEYSVECQEDSACPAAEESLPIEVMVDAVHKLKYENYTSSFFIRDIIKPDPPKNLQLKPLKNSRQVEVSWEYPDTWSTPHSYFSLTFCVQVQGKSKREKKDRVFTDKTSATVICRKNASISVRAQDRYYSSSWSEWASVPCS
chain 2: RNLPVATPDPGMFPCLHHSQNLLRAVSNMLQKARQTLEFYPCTSEEIDHEDITKDKTSTVEACLPLELTKNESCLNSRETSFITNGSCLASRKTSFMMALCLSSIYEDLKMYQVEFKTMNAKLLMDPKRQIFLDQNMLAVIDELMQALNFNSETVPQKSSLEEPDFYKTKIKLCILLHAFRIRAVTIDRVMSYLNAS

One test deals with 78-34. As to the kind of experiment: kinetic binding.
The next test deals with Y61 L50Y. Kind of test: kinetic binding.
The target of the next test is Y61 L94Y. Kind of test: kinetic binding.
Test [1] addresses B1. As to the kind of experiment: receptor binding assay (RBA).
Test [2] has as its target B1. Kind of test: kinetic binding.
Test [3] concerns the target T1, human IL-12 p70 (UniProt P29460 23-328; P29459 23-219).
T1 chain 1: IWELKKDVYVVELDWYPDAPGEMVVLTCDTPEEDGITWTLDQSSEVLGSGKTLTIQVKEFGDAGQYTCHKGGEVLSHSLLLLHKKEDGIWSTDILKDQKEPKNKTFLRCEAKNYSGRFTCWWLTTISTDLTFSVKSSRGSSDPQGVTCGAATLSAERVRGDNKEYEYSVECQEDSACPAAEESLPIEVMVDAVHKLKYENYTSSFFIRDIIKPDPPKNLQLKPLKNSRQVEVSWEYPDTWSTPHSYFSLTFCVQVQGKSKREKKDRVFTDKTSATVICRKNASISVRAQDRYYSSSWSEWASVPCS
T1 chain 2: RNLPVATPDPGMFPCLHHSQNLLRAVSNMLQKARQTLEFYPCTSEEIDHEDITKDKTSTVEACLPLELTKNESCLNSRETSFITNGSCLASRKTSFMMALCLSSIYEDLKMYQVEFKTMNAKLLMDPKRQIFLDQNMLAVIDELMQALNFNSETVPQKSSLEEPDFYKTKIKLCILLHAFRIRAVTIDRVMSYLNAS
As to the kind of experiment: receptor binding assay (RBA).

Test [4] deals with T1, human IL-12 p70. As to the kind of experiment: receptor binding assay (RBA).
For test [5], the target named is T1, human IL-12 p70. Kind of test: kinetic binding.

In turn, B1 had a koff in the test with 78-34 of 0.0164 s⁻¹. In addition, the Kd was 0.138 nM in the test with Y61 L50Y and 0.341 nM with Y61 L94Y.

B2: Y61 (antibody, V domains shown)
VH: QVQLVQSGGGVVQPGRSLRLSCAASGFTFSSYGMHWVRQAPGKGLEWVAFIRYDGSNKYYADSVKGRFTISRDNSKNTLYLQMKSLRAEDTAVYYCKTHGSHDNWGQGTMVTVSS
VL: SYVLTQPPSVSGTPGQRVTISCSGGRSNIGSNTVKWYQQLPGTAPKLLIYGNDQRPSGVPDRFSGSKSGTSASLAITGVQAEDEADYYCQSYDRGTHPALLFGTGTKVTVLG
Molecule B2 came in with an IC50 with IL-12 [1] of 0.016 nM. The same molecule registered a Kd with IL-12 [2] of 0.604 nM.

B3: J695 (antibody, V domains shown)
VH: QVQLVESGGGVVQPGRSLRLSCAASGFTFSSYGMHWVRQAPGKGLEWVAFIRYDGSNKYYADSVKGRFTISRDNSKNTLYLQMNSLRAEDTAVYYCKTHGSHDNWGQGTMVTVSS
VL: QSVLTQPPSVSGAPGQRVTISCSGSRSNIGSNTVKWYQQLPGTAPKLLIYYNDQRPSGVPDRFSGSKSGTSASLAITGLQAEDEADYYCQSYDRYTHPALLFGTGTKVTVLG
Molecule B3 displayed an IC50 in the test with human IL-12 p70 [3] of 0.05 nM.

B4: 103-14 (antibody, V domains shown)
VH: QVQLVQSGGGVVQPGRSLRLSCAASGFTFSSYGMHWVRQAPGKGLEWVAFIRYDGSNKYYADSVKGRFTISRDNSKNTLYLQMKSLRAEDTAVYYCKTHGSHDNWGQGTMVTVSS
VL: SYVLTQPPSVSGTPGQRVTISCSGGRSNIGSNTVKWYQQLPGTAPKLLIYGNDQRPSGVPDRFSGSKSGTSASLAITGVQAEDEADYYCQSYDRGFTGSMVFGTGTKVTVL
B4: in the test with human IL-12 p70 [4], the IC50 was 0.04 nM. The koff with human IL-12 p70 [5] came to 0.00067 s⁻¹.
